Data published in PMC11589570, “Critical assessment of LC3/GABARAP ligands used for degrader development and ligandability of LC3/GABARAP binding pockets” (Nature Communications, 2024).

The binders below were run against 1_(1-117) (human), Q9H0R8 (assay: FP). Details: modification not given.
1_(1-117) (human), Q9H0R8, sequence (Q9H0R8 whole entry): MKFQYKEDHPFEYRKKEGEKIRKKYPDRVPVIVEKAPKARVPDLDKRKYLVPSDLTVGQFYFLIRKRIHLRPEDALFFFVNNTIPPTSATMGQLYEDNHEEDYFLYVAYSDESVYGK

Ki [µM] | Binder
3.7 | AGLNSSWVELPMNSS [NIX-P2-LIR]
5.5 | SDNSSGGDDDWTHLSSK [p62-LIR]
163 | LNSGVEYYWDQLNETV [AMBRA1-LIR]
